Laboratory results taken from patent US20110263454A1, “Methods of Identifying Functional Characteristics of Promoters, Transcription Modifying Proteins and Transcription Modulating Agents” (Salk Institute for Biological Studies, priority 2008, published 2011).

B1: CTF2: COUP-TF2 (NR2F2), cDNA driver (protein, UniProt P24468 1-414, looked up)
COUP transcription factor 2: MAMVVSTWRDPQDEVPGSQGSQASQAPPVPGPPPGAPHTPQTPGQGGPASTPAQTAAGGQGGPGGPGSDKQQQQQHIECVVCGDKSSGKHYGQFTCEGCKSFFKRSVRRNLSYTCRANRNCPIDQHHRNQCQYCRLKKCLKVGMRREAVQRGRMPPTQPTHGQFALTNGDPLNCHSYLSGYISLLLRAEPYPTSRFGSQCMQPNNIMGIENICELAARMLFSAVEWARNIPFFPDLQITDQVALLRLTWSELFVLNAAQCSMPLHVAPLLAAAGLHASPMSADRVVAFMDHIRIFQEQVEKLKALHVDSAEYSCLKAIVLFTSDACGLSDVAHVESLQEKSQCALEEYVRSQYPNQPTRFGKLLLRLPSLRTVSSSVIEQLFFVRLVGKTPIETLIRDMLLSGSSFNWPYMAIQ
B2: CTF3: COUP-TF3 (NR2F6), cDNA driver (protein, UniProt P10588 1-404, looked up)
Nuclear receptor subfamily 2 …: MAMVTGGWGGPGGDTNGVDKAGGYPRAAEDDSASPPGAASDAEPGDEERPGLQVDCVVCGDKSSGKHYGVFTCEGCKSFFKRSIRRNLSYTCRSNRDCQIDQHHRNQCQYCRLKKCFRVGMRKEAVQRGRIPHSLPGAVAASSGSPPGSALAAVASGGDLFPGQPVSELIAQLLRAEPYPAAAGRFGAGGGAAGAVLGIDNVCELAARLLFSTVEWARHAPFFPELPVADQVALLRLSWSELFVLNAAQAALPLHTAPLLAAAGLHAAPMAAERAVAFMDQVRAFQEQVDKLGRLQVDSAEYGCLKAIALFTPDACGLSDPAHVESLQEKAQVALTEYVRAQYPSQPQRFGRLLLRLPALRAVPASLISQLFFMRLVGKTPIETLIRDMLLSGSTFNWPYGSGQ
B3: ERR2: Estrogen Related Receptor β (NR3B2, ERRb), cDNA driver (protein, UniProt O95718 1-433, looked up)
Steroid hormone receptor ERR2: MSSDDRHLGSSCGSFIKTEPSSPSSGIDALSHHSPSGSSDASGGFGLALGTHANGLDSPPMFAGAGLGGTPCRKSYEDCASGIMEDSAIKCEYMLNAIPKRLCLVCGDIASGYHYGVASCEACKAFFKRTIQGNIEYSCPATNECEITKRRRKSCQACRFMKCLKVGMLKEGVRLDRVRGGRQKYKRRLDSESSPYLSLQISPPAKKPLTKIVSYLLVAEPDKLYAMPPPGMPEGDIKALTTLCDLADRELVVIIGWAKHIPGFSSLSLGDQMSLLQSAWMEILILGIVYRSLPYDDKLVYAEDYIMDEEHSRLAGLLELYRAILQLVRRYKKLKVEKEEFVTLKALALANSDSMYIEDLEAVQKLQDLLHEALQDYELSQRHEEPWRTGKLLLTLPLLRQTAAKAVQHFYSVKLQGKVPMHKLFLEMLEAKV
B4: Erb: Estrogen Receptor β (NR3A2, ERb), cDNA driver (protein, UniProt Q92731 1-530, looked up)
Estrogen receptor beta: MDIKNSPSSLNSPSSYNCSQSILPLEHGSIYIPSSYVDSHHEYPAMTFYSPAVMNYSIPSNVTNLEGGPGRQTTSPNVLWPTPGHLSPLVVHRQLSHLYAEPQKSPWCEARSLEHTLPVNRETLKRKVSGNRCASPVTGPGSKRDAHFCAVCSDYASGYHYGVWSCEGCKAFFKRSIQGHNDYICPATNQCTIDKNRRKSCQACRLRKCYEVGMVKCGSRRERCGYRLVRRQRSADEQLHCAGKAKRSGGHAPRVRELLLDALSPEQLVLTLLEAEPPHVLISRPSAPFTEASMMMSLTKLADKELVHMISWAKKIPGFVELSLFDQVRLLESCWMEVLMMGLMWRSIDHPGKLIFAPDLVLDRDEGKCVEGILEIFDMLLATTSRFRELKLQHKEYLCVKAMILLNSSMYPLVTATQDADSSRKLAHLLNAVTDALVWVIAKSGISSQQQSMRLANLLMLLSHVRHASNKGMEHLLNMKCKNVVPVYDLLLEMLNAHVLRGCKSSITGSECSPAEDSKSKEGSQNPQSQ
B5: CTF1: COUP-TF1 (NR2F1), cDNA driver (protein, UniProt P10589 1-423, looked up)
COUP transcription factor 1: MAMVVSSWRDPQDDVAGGNPGGPNPAAQAARGGGGGAGEQQQQAGSGAPHTPQTPGQPGAPATPGTAGDKGQGPPGSGQSQQHIECVVCGDKSSGKHYGQFTCEGCKSFFKRSVRRNLTYTCRANRNCPIDQHHRNQCQYCRLKKCLKVGMRREAVQRGRMPPTQPNPGQYALTNGDPLNGHCYLSGYISLLLRAEPYPTSRYGSQCMQPNNIMGIENICELAARLLFSAVEWARNIPFFPDLQITDQVSLLRLTWSELFVLNAAQCSMPLHVAPLLAAAGLHASPMSADRVVAFMDHIRIFQEQVEKLKALHVDSAEYSCLKAIVLFTSDACGLSDAAHIESLQEKSQCALEEYVRSQYPNQPSRFGKLLLRLPSLRTVSSSVIEQLFFVRLVGKTPIETLIRDMLLSGSSFNWPYMSIQCS
B6: ERR3: Estrogen Related Receptor γ (NR3B3, ERRg), cDNA driver (protein, UniProt P62508 1-458, looked up)
Estrogen-related receptor …: MDSVELCLPESFSLHYEEELLCRMSNKDRHIDSSCSSFIKTEPSSPASLTDSVNHHSPGGSSDASGSYSSTMNGHQNGLDSPPLYPSAPILGGSGPVRKLYDDCSSTIVEDPQTKCEYMLNSMPKRLCLVCGDIASGYHYGVASCEACKAFFKRTIQGNIEYSCPATNECEITKRRRKSCQACRFMKCLKVGMLKEGVRLDRVRGGRQKYKRRIDAENSPYLNPQLVQPAKKPYNKIVSHLLVAEPEKIYAMPDPTVPDSDIKALTTLCDLADRELVVIIGWAKHIPGFSTLSLADQMSLLQSAWMEILILGVVYRSLSFEDELVYADDYIMDEDQSKLAGLLDLNNAILQLVKKYKSMKLEKEEFVTLKAIALANSDSMHIEDVEAVQKLQDVLHEALQDYEAGQHMEDPRRAGKMLMTLPLLRQTSTKAVQHFYNIKLEGKVPMHKLFLEMLEAKV

test system: hIFNg promoter; assay: NHR-promoter luciferase screen, hIFNg promoter; format: cell-based, human; conditions: IFNg promoter; HR component without or with ligand
Outline: (§1)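 CV-1 cells were co-transfected with 50 ng NHR (homodimer or NHR/RXR heterodimer), 100 ng promoter-luciferase construct and 50 ng LacZ. Luciferase was normalized to LacZ and to a no-NHR/no-ligand control.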

Row | Molecule | Luc. act., normalized to lacZ | Normalized Luc. act., normalized to control
1 | B1 | 35.0 | 2.2
2 | B2 | 28.5 | 1.8
3 | B3 | 58.9 | 3.7
4 | B4 | 22.0 | 1.4
5 | B5 | 31.8 | 2.0
6 | B6 | 27.9 | 1.8

same assay, conditions: transcription factor +/- ligand; control = 1.00

Row | Molecule | hIFNg promoter reporter activity
7 | B1 | 2.20
8 | B2 | 1.79
9 | B3 | 3.70
10 | B4 | 1.39
11 | B5 | 2.00
12 | B6 | 1.75

test system: mCAR promoter; assay: NHR-promoter luciferase screen, mCAR promoter; format: cell-based, mouse; conditions: mCAR promoter-luciferase, CV-1 cells, NHR +/- ligand, control = 1.00
Outline: as §1

Row | Molecule | luciferase activity normalized to lacZ activity and to a control, mCAR
13 | B1 | 0.51
14 | B2 | 0.29
15 | B3 | 0.99
16 | B4 | 1.18
17 | B5 | 0.31
18 | B6 | 2.87

same assay, conditions: mCAR promoter; HR/ligand component

Row | Molecule | Luc. act., normalized to lacZ | Normalized Luc. act., normalized to control
19 | B1 | 19.3 | 0.5
20 | B2 | 11.2 | 0.3
21 | B3 | 37.8 | 1.0
22 | B4 | 44.8 | 1.2
23 | B5 | 11.8 | 0.3
24 | B6 | 109.5 | 2.9

test system: hPPARg1 promoter; assay: NHR-promoter luciferase screen, hPPARg1 promoter; format: cell-based, human; conditions: PPARG1 promoter; hormone receptor with or without its ligand
Outline: as §1

Row | Molecule | Luc. act., normalized to lacZ
25 | B1 | 43.9
26 | B2 | 32.5
27 | B3 | 59.1
28 | B4 | 45.3
29 | B5 | 39.7
30 | B6 | 63.7

same assay, conditions: PPARG1 promoter; hormone receptor with or without its ligand; relative to control

Row | Molecule | Normalized Luc. act., normalized to control
31 | B1 | 0.6
32 | B2 | 0.5
33 | B3 | 0.9
34 | B4 | 0.7
35 | B5 | 0.6
36 | B6 | 0.9

same assay, conditions: Table 6d; luciferase activity relative to control (control = 1.00)

Row | Molecule | Results of assays of transcription factor (+/- ligand) with hPPARg1
37 | B1 | 0.64
38 | B2 | 0.47
39 | B3 | 0.86
40 | B4 | 0.66
41 | B5 | 0.58
42 | B6 | 0.92

test system: mUCP2 promoter; assay: NHR-promoter luciferase screen, mUCP2 promoter; format: cell-based, mouse; conditions: mUCP2 promoter reporter; co-transfected HR, with or without its ligand
Outline: as §1

Row | Molecule | Luc. act., normalized to lacZ
43 | B1 | 90.4
44 | B2 | 54.4
45 | B3 | 185.1
46 | B4 | 114.4
47 | B5 | 67.1
48 | B6 | 193.4

same assay, conditions: mUCP2 promoter reporter; co-transfected HR, with or without its ligand; relative to control

Row | Molecule | Normalized Luc. act., normalized to control
49 | B1 | 0.8
50 | B2 | 0.5
51 | B3 | 1.7
52 | B4 | 1.0
53 | B5 | 0.6
54 | B6 | 1.8

same assay, conditions: mUCP2 promoter-luciferase, CV-1 cells, NHR +/- ligand, control = 1.00

Row | Molecule | luciferase activity normalized to lacZ activity and to a control, mUCP2
55 | B1 | 0.82
56 | B2 | 0.49
57 | B3 | 1.68
58 | B4 | 1.04
59 | B5 | 0.61
60 | B6 | 1.76

test system: mLeptin promoter; assay: NHR-promoter luciferase screen, mLeptin promoter; format: cell-based, mouse; conditions: Table 7; mLeptin
Outline: as §1

Row | Molecule | Luc. act., normalized to lacZ | Normalized Luc. act., normalized to control
61 | B1 | 3.8 | 1.3
62 | B2 | 2.7 | 0.9
63 | B3 | 9.7 | 3.3
64 | B4 | 2.5 | 0.9
65 | B5 | 3.1 | 1.1
66 | B6 | 2.4 | 0.8

same assay, conditions: Table 6d; luciferase activity relative to control (control = 1.00)

Row | Molecule | Results of assays of transcription factor (+/- ligand) with mLeptin
67 | B1 | 1.31
68 | B2 | 0.92
69 | B3 | 3.30
70 | B4 | 0.86
71 | B5 | 1.07
72 | B6 | 0.80

same assay, conditions: mLeptin promoter-luciferase, NHR +/- ligand, control = 1.0

Row | Molecule | luciferase/LacZ, mLeptin (selected results)
73 | B3 | 3.3

test system: hCYP3A4 promoter; assay: NHR-promoter luciferase screen, hCYP3A4 promoter; format: cell-based, human; conditions: CYP3A4 promoter; HR/ligand component
Outline: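 Luciferase reporter read-out after co-expression in CV-1 cells of V5H6-tagged receptor (alone or with RXR), the promoter construct and LacZ. Values are luciferase/LacZ relative to a control lacking NHR or ligand; orphan receptors tested ligand-free.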

Row | Molecule | Luc. act., normalized to lacZ | Normalized Luc. act., normalized to control
74 | B1 | 2.7 | 0.6
75 | B2 | 6.1 | 1.4
76 | B3 | 15.5 | 3.5
77 | B4 | 6.0 | 1.3
78 | B5 | 2.6 | 0.6
79 | B6 | 4.5 | 1.0

same assay, conditions: transcription factor +/- ligand; control = 1.00

Row | Molecule | hCYP3A4 promoter reporter activity
80 | B1 | 0.61
81 | B2 | 1.37
82 | B3 | 3.49
83 | B4 | 1.35
84 | B5 | 0.59
85 | B6 | 1.02
